Data on 1 molecule can be found in patent publication US20250092426, “CAS ENDONUCLEASES AND RELATED METHODS” (Flagship Pioneering Innovations VII, LLC, published 2025).

Where only a bound is given, the exact number is not on record here.

The data set deals with T1, CasEnd-20 (synthetic construct).
T1 chain: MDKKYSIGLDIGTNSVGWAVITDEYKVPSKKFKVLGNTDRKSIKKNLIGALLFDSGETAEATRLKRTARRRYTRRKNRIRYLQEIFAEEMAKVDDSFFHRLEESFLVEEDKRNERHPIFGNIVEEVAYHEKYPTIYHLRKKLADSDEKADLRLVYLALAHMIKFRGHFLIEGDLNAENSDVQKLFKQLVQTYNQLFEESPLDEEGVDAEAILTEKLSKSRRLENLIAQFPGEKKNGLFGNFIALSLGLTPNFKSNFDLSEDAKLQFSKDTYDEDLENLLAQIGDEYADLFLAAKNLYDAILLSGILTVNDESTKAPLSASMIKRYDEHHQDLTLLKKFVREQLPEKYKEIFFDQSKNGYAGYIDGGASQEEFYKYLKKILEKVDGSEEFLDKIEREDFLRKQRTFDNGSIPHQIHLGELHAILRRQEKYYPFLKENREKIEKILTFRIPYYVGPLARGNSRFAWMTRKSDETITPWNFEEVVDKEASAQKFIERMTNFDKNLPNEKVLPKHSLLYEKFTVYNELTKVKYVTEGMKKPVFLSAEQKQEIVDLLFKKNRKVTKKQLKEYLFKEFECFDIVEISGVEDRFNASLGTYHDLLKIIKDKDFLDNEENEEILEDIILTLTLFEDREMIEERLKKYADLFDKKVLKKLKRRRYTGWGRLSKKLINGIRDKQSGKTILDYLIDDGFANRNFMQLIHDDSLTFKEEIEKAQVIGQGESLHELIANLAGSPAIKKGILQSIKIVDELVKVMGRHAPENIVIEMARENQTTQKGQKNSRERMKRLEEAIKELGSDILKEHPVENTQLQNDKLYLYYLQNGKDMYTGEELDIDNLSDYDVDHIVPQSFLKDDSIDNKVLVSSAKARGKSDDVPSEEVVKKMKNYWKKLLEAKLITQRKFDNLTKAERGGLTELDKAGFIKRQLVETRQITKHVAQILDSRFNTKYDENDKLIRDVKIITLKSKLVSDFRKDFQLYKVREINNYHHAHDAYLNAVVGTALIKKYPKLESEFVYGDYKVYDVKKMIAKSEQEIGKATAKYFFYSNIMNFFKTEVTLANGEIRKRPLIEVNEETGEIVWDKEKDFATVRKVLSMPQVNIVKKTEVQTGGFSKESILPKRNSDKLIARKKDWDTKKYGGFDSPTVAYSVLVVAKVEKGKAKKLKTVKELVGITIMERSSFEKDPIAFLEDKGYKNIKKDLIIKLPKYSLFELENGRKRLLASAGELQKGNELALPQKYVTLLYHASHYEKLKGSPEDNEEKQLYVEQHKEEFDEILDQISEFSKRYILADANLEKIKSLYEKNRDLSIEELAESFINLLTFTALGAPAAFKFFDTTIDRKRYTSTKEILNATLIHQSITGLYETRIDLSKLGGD
As to the kind of experiment: cell_activity; +++; K562, second nick guide SEQ 380; PAM not stated. How it is done: The ability of the candidate endonucleases, including endonucleases 1-38 (CasEnds 1-38) (set forth in Table 1 and SEQ ID NOS: 1-38, respectively), to mediate target nucleic acid editing in cells was assessed by amplicon sequencing of the endogenous hemoglobin subunit beta (eHBB) gene, wherein the percent of amplicons displaying the intended edit is measured. The editing system is comprised of a template RNA (designed to introduce the Single Nucleotide Polymorphism), a second nick guide RNA, and a fusion protein consisting of retroviral reverse transcriptase and the individual subject Cas endonuclease.
Briefly, 250 ng of plasmid DNA encoding the subject fusion protein (containing one of the subject CasEnds), 250 ng each of plasmid DNA encoding the template RNA and the second nick guide RNA were added to 15 μL Lonza SF buffer containing 250,000 K562 cells. Nucleofection was mediated utilizing program FF-120-DA on a Lonza nucleofector. The day of nucleofection was marked as day 0. At day 3, the cells were harvested and subjected to lysis buffer treatment overnight. Genomic DNA was extracted and used for targeted amplicon sequencing to evaluate the performance of each Cas endonucleases based on their percent edit efficiencies.

B1: HBB template RNA ; HBB protospacer (ssRNA ; dsDNA)
RNA: CAUGGUGCACCUGACUCCUGGUUUUAGAGCUAGAAAUAGCAAGUUAAAAUAAGGCUAGUCCGUUAUCAACUUGAAAAAGUGGCACCGAGUCGGUGCACGGCAGACUUCUCUGCCGGAGUCAGGUGC
DNA 1: CATGGTGCACCTGACTCCTG
DNA 2: CAGGAGTCAGGTGCACCATG
As for B1, the activity is ≥ 100 % of reference.
